Data: patent US20240043542A1 (published 2024)
Changes are numbered by the printed parent chain. Where two headings read alike, the source gives them in different places. Values belong to the binder of their own block, whether it stands above or below them.

Columns and labels:
[1] = target: T1, human B7-H4 on the cell surface (human, UniProt Q7Z7D3 25-282); test: cell-based or functional assay
T1 sequence: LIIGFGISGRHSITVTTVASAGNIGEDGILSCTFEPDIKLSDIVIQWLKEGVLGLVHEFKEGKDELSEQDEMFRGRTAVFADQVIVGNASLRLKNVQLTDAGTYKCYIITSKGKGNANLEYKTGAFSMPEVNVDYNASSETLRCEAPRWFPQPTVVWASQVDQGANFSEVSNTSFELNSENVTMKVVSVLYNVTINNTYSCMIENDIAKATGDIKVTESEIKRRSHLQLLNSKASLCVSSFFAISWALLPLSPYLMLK

[2] = target: T1, human B7-H4 on the cell surface; test: cell-based or functional assay; remark: listed apart in the source
B7-H4 IgV-huIgG1 = target: T2, B7-H4 IgV-huIgG1 (human); test: SPR, protocol of Example 4
T2 construct: also called N-terminal domain of human B7-H4
Method: Briefly, anti-human Fab antibody was immobilized on a carboxyl-derivatized SPR chip surface, and anti-B7-H4 antibodies were captured on the resulting surface at 5 ug/ml for 30 seconds.

[3] = target: T1, human B7-H4 on the cell surface; test: flow cytometry, SK-BR-3 cells
Method: (§1) The fucosylated and afucosylated anti B7-H4 antibodies were also characterized by flow cytometry. In these experiments, HEK293T cell lines were transfected to express full-length cynomolgus monkey, mouse, or rat B7-H4. In addition, the endogenous human B7-H4 expressing SK-BR-3 breast cancer cell lines were used to assess the cell binding potency of B7-H4 antibodies. […] Following incubation, cells were pelleted, washed, incubated with a secondary labeling antibody, and run on a flow cytometer. Data were analyzed using the FlowJo software. MFI was plotted vs. antibody concentration, and the EC50 cell binding potency was calculated using nonlinear regression curve fit (GraphPad Prism).

[4] = target: T3, cynomolgus monkey B7-H4 on the cell surface (cynomolgus monkey, UniProt Q7Z7D3 25-282 (human entry)); test: flow cytometry, transfected 293 cells
T3 construct: full-length, on transfected HEK293T cells
T3 chain: T1 sequence with L53I, F242L, S252A
Method: as §1

[5] = target: T4, mouse B7-H4 on the cell surface (mouse, UniProt Q7TSP5 25-257); test: flow cytometry, transfected 293 cells
T4 construct: full-length, on transfected HEK293T cells
T4 sequence: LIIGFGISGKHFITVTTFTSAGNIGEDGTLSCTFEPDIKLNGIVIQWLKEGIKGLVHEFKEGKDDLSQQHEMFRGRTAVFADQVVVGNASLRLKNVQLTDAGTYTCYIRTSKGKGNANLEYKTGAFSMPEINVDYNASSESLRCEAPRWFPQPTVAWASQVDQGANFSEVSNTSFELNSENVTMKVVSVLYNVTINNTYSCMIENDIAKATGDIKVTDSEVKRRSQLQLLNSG
Method: as §1

[6] = target: T5, rat B7-H4 on the cell surface (rat, UniProt Q501W4 25-257); test: flow cytometry, transfected 293 cells
T5 construct: full-length, on transfected HEK293T cells
T5 sequence: T4 sequence with R109H, Q228E
Method: as §1

[7] = target: T4, mouse B7-H4 on the cell surface; test: flow cytometry, transfected HEK293T
[8] = target: T1, human B7-H4 on the cell surface; test: flow cytometry, SK-BR-3 cells; remark: listed apart in the source
Method: Following incubation, cells were pelleted, washed and incubated with a secondary labeling antibody and samples were acquired on a flow cytometer. Data was analyzed using the FlowJo software and MFI was plotted vs. antibody concentration. The EC50 cell binding potency was calculated using nonlinear regression curve fit (GraphPad Prism).

[9] = target: T6, recombinant human B7-H4-huIgG1 (human); test: BLI, antigen on Protein A tips;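 also: Anti-B7-H4 antibodies assessed for affinity toward the B7-H4 extracellular domain using biolayer interferometry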
T6 construct: also called B7-H4-extracellular domain (ECD)
T6 sequence (chain, as listed by the source limits assumed): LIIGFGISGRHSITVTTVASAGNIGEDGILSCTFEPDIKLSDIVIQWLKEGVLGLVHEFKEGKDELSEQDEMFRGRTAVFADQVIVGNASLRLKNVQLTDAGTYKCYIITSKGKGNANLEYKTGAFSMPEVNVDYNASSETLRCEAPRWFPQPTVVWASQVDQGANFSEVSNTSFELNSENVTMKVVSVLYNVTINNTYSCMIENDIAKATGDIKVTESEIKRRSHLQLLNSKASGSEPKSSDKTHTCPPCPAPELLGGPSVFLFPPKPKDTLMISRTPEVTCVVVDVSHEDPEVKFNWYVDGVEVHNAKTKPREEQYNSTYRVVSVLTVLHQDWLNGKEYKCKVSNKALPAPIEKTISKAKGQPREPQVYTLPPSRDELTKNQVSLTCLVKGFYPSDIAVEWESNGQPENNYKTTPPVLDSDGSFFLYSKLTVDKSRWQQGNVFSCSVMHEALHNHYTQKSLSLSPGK
Method: (§2) Binding affinities of anti-B7-H4 antibodies to B7-H4-extracellular domain (ECD) were determined by biolayer interferometry (BLI). […] Anti-B7-H4 antibodies were then evaluated for binding.

[10] = target: T7, mouse B7-H4 (recombinant, BLI) (mouse, UniProt Q7TSP5 29-256, limits assumed); test: BLI, antigen on Protein A tips;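 also: Anti-B7-H4 antibodies assessed for affinity toward the B7-H4 extracellular domain using biolayer interferometry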
T7 construct: also called murine B7-H4
T7 sequence: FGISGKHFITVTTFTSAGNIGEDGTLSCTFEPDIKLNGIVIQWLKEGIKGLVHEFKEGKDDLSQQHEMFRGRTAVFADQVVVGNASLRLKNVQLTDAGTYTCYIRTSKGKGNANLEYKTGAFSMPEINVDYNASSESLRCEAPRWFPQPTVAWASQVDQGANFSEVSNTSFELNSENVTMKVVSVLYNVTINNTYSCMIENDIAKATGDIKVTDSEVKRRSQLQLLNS
Method: as §2

[11] = target: T8, cynomolgus monkey B7-H4 (recombinant, BLI) (cynomolgus monkey, UniProt Q7Z7D3 25-259 (human entry)); test: BLI, antigen on Protein A tips;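 also: Anti-B7-H4 antibodies assessed for affinity toward the B7-H4 extracellular domain using biolayer interferometry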
T8 construct: also called Cynomolgus B7-H4
T8 sequence: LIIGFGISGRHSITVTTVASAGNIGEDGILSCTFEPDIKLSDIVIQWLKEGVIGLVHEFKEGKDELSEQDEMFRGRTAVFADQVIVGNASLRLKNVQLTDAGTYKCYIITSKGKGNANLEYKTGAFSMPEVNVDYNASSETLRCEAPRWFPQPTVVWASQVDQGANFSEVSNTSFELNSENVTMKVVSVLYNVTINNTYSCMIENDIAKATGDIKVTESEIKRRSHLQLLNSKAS
Method: as §2

[12] = target: T3, cynomolgus monkey B7-H4 on the cell …; test: flow cytometry, 100 nM, transfected HEK293T
Method: (§3) HEK293T cell lines were transfected to express full-length human, cynomolgus monkey, mouse, or rat B7-H4. In addition, the endogenous human B7-H4 expressing SK-BR-3 breast cancer cell line was used to assess the ability of the antibodies to bind B7-H4 expressed on the cell surface. 1×10⁵ parental HEK293T or transfected HEK293T cell lines were incubated with 100 nM of the B7-H4 antibodies. Following incubation, cells were pelleted, washed, and incubated with a secondary labeling antibody, and samples were acquired on a flow cytometer. Fold binding over the parental cell line (FOP) was calculated as follows: MFI transfected HKE293T cells/MFI parental HEK293T cells.

[13] = target: T1, human B7-H4 on the cell surface; test: flow cytometry, 100 nM, transfected HEK293T
Method: as §3

ADCC Assay EC50 (SK-BR-3 target cells) [1]: 0.0015 nM
aAPC Assay EC50 (IFNγ production) [2]: 1.05 nM
Kd (B7-H4 IgV-huIgG1): 2.01 nM
koff (B7-H4 IgV-huIgG1): 0.000725 s⁻¹
kon (B7-H4 IgV-huIgG1): 360000 M⁻¹ s⁻¹
EC50 [3]: 0.767 nM
EC50 [4]: 1.77 nM
EC50 [5]: 1.77 nM
B1: B7-H4 antibody 20506, afucosylated (antibody, human IgG1, kappa, V domains shown)
VH: QLQLQESGPGLVKPSETLSLTCTASGGSISHGGYYWSWIRQHPGKGLEWIGNIYYSGSTYYNPSLKSRVTMSVDTSKNQFSLKLSSVTAADTAVYYCARESSTISADFDLWGRGTLVTVSS
VL: DIQMTQSPSSVSASVGDRVTITCRASQGISRWLAWYQQKPGKAPKLLIYAASSLQSGVPSRFSGSGSGTDFTLTISSLQPEDFATYYCQQAHTFPYTFGGGTKVEIKR
modifications: afucosylated Fc glycan (made in CHO-y cells)
notes: human IgG1/kappa

ADCC Assay EC50 (SK-BR-3 target cells) [1]: 0.0135 nM
aAPC Assay EC50 (IFNγ production) [2]: 0.95 nM
Kd (B7-H4 IgV-huIgG1): 1.93 nM
koff (B7-H4 IgV-huIgG1): 0.000703 s⁻¹
kon (B7-H4 IgV-huIgG1): 365000 M⁻¹ s⁻¹
EC50 [3]: 0.739 nM
EC50 [4]: 1.77 nM
EC50 [6]: 3.25 nM
EC50 [5]: 1.77 nM
B2: B7-H4 antibody 20506, fucosylated (antibody, human IgG1, kappa, V domains shown)
VH: B1 VH
VL: B1 VL
modifications: normally fucosylated Fc glycan (made in CHO-x cells)
notes: human IgG1/kappa

EC50 [8]: 61.2 nM
Kd [9]: 9.44 nM
koff [9]: 0.0272 s⁻¹
kon [9]: 2.89e+06 M⁻¹ s⁻¹
binding result [10]: no binding
Kd [11]: 5.17 nM
koff [11]: 0.0168 s⁻¹
kon [11]: 3.25e+06 M⁻¹ s⁻¹
FOP (fold binding over the parental cell line) [12]: 524 fold
FOP (fold binding over the parental cell line) [13]: 619 fold
B3: B7-H4 antibody 15495 (antibody, human IgG1, kappa, V domains shown)
VH: QVQLVQSGAEVKKPGSSVKVSCKASGGTFSSYAISWVRQAPGQGLEWMGGIIPIFGTASYAQKFQGRVTITADESTSTAYMELSSLRSEDTAVYYCARQQYDGRRYFGLWGRGTLVTVSS
VL: EIVMTQSPATLSVSPGERATLSCRASQSVSSNLAWYQQKPGQAPRLLIYSASTRATGIPARFSGSGSGTEFTLTISSLQSEDFAVYYCQQVNVWPPTFGGGTKVEIKR
notes: human IgG1/kappa
binding result [7]: no binding (tested: FOP 10; 100 nM antibody)
